Some results are limits rather than exact numbers.

Among the data in PMC7608914, “Bridging of nucleosome-proximal DNA double-strand breaks by PARP2 enhances its interaction with HPF1” (PLoS ONE, 2019) are Kd values, retold here.

Test [1] addresses T1, Alexa488-labeled PARP2-QFRD (human, UniProt Q9UGN5-2 1-570, Q112R | F113D, Alexa Fluor 488 C5 maleimide (extent of labeling typically between 20 and 80%); labelled residue not stated).
T1 construct: human Poly(ADP-ribose) Polymerase 2, isoform 2 cDNA in pET28b, Q112R/F113D double point mutant; source: E. coli Rosetta2 (DE3) pLysS, purified (HisTrap, heparin, Superdex 200), then labelled
Put plainly: FRET or BRET; Alexa647-labeled HPF1 (acceptor) titrated from 18.5 μM to 0 μM into 1 μM Alexa488-labeled PARP2 (donor) alone or into the preformed PARP2–Nuc165 complex (1 μM / 100 nM); 50 mM Tris-HCl pH 8, 50 mM NaCl, 1 mM MgCl2, 0.1 mM EDTA, 0.1 mM TCEP, 0.01% NP-40; Hill model. To be noted: both partners purified.

In test [2] the target is T2, Alexa488-labeled PARP2-WT (human, UniProt Q9UGN5-2 1-570, Alexa Fluor 488 C5 maleimide (extent of labeling typically between 20 and 80%); labelled residue not stated).
T2 construct: human Poly(ADP-ribose) Polymerase 2, isoform 2 cDNA in pET28b; the mutant made from this vector is called full-length; source: E. coli Rosetta2 (DE3) pLysS, purified (HisTrap, heparin, Superdex 200), then labelled
The description is as above. Conditions: both partners purified.

B1: Alexa647-labeled HPF1 (natural protein, human, UniProt Q9NWY4 1-346, looked up)
chain: MVGGGGKRRPGGEGPQCEKTTDVKKSKFCEADVSSDLRKEVENHYKLSLPEDFYHFWKFCEELDPEKPSDSLSASLGLQLVGPYDILAGKHKTKKKSTGLNFNLHWRFYYDPPEFQTIIIGDNKTQYHMGYFRDSPDEFPVYVGINEAKKNCIIVPNGDNVFAAVKLFLTKKLREITDKKKINLLKNIDEKLTEAARELGYSLEQRTVKMKQRDKKVVTKTFHGAGLVVPVDKNDVGYRELPETDADLKRICKTIVEAASDEERLKAFAPIQEMMTFVQFANDECDYGMGLELGMDLFCYGSHYFHKVAGQLLPLAYNLLKRNLFAEIIEEHLANRSQENIDQLAA
modifications: Alexa Fluor 647 C2 maleimide (extent of labeling typically between 20 and 80%); labelled residue not stated
notes: human HPF1; cDNA amplified by PCR and cloned between the Nde1 and Xho1 sites of pET28a; also called HPF1_Alexa647; HPF1_A647; source: E. coli Rosetta2 (DE3) pLysS, purified (HisTrap, Superdex 75), then labelled
As to B1, the Kd in test [1] is greater than 10 µM; in test [2], greater than 3 µM.

One may read the Kd as the concentration at which binding is half-saturated. Lower therefore signals higher affinity.
